Test results reported in patent US6033903, “Method of expressing and secreting soluble extracellular domains of human gonadotropin hormone receptors” (Applied Research Systems, Ars Holding N.V., dated 2000).

Biological target: human follicle stimulating hormone (recombinant hFSH) (human, UniProt P01215, ^125 I label on the tracer form (which chain and residue is not stated); unlabelled in the cold competitor, the affinity resin and the cell assay)
Test: 125I-hFSH radioligand binding, summary of Example 2

B1: soluble hFSHR-EC secreted from baculovirus-infected insect cells (gp67 signal peptide fusion, pAcGP67-hFSHR-EC) (receptor)
chain: ADQCHHRICHCSNRVFLCQESKVTEIPSDLPRNAIELRFVLTKLRVIQKGAFSGFGDLEKIEISQNDVLEVIEADVFSNLPKLHEIRIEKANNLLYINPEAFQNLPNLQYLLISNTGIKHLPDVHKIHSLQKVLLDIQDNINIHTIERNSFVGLSFESVILWLNKNGIQEIHNCAFNGTQLDELNLSDNNNLEELPNDVFHGASGPVILDISRTRIHSLPSYGLENLKKLRARSTYNLKKLPTLEKLVALMEASLTYPSHCCAFANWRRQISELHPICNKSILRQEVDYMTQTRGQRSSLAEDNESSYSRGFDMTYTEFDYDLCNEVVDVTCSPKPDAFNPCEDIMGYNILR
binding result: binds
